The results in this text go back to patent publication US20220127354A1 (Amgen, published 2022).

The chains are these.
B1: hu anti-<huCDH19> 4A9 (Ab ID 13589) (antibody, human IgG1, lambda, V domains shown)
VH: QVQLQESGPGLVKPSETLSLTCTVSGGSISGYYWSWIRQPPGKGLEWFAYFSYSGSTNYNPSLKSRVTLSVDTSKNQFSLKLSSVTAADTAVYYCARNWAFHFDFWGQGTLVTVSS
VL: QSVLTQPPSVSGAPGQRVTISCTGSSSNIGTGYAVHWYQQFPGTAPKLLIYGNNNRPSGVPDRFSGSKSGTSASLAITGLQAEDEADYYCQSYDSRLSGWVFGGGTKLTVLG
notes: huIgG1z / huLLC-C1; Bin 1
B2: hu anti-<huCDH19> 26D1.1 (Ab ID 13882) (antibody, human IgG1, lambda, V domains shown)
VH: QVQLVQSGAEVKKPGASVKVSCKASRYTFTSYYMSWVRQAPGQGLEWMGIIHPSGGDTTYAQKFQGRVTMTGDTSTSTVYMELSSLRSEDTAVYYCARGGIKLWLHFDYWGQGTLVTVSS
VL: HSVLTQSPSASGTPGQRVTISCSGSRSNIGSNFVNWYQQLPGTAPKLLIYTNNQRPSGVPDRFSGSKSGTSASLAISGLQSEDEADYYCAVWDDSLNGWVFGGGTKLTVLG
notes: huIgG1z / huLLC-C2; Bin 2
B3: anti-CDH19 antibody 2G6 (Ab ID 13588) (antibody, human IgG1, lambda, V domains shown)
VH: QVQLVESGGGVVQPGRSLRLSCAASGFTFSSYGMHWVRQAPGKGLEWVAFIWYDGSNKYYADSVKDRFTISRDNSKNTLYLQMKSLRAEDTAVYYCARRAGIIGTIGYYYGMDVWGQGTTVTVSS
VL: SYELTQPPSVSVSPGQTASITCSGDRLGEKYTCWYQQRPGQSPLLVIYQDTKRPSGIPERFSGSNSGNTATLTISGTQAMDEADYYCQAWDSSTVVFGGGTKLTVLG
notes: Bin 4
B4: hu anti-<huCDH19> 4B10 (Ab ID 13590) (antibody, V domains shown)
VH: QVQLVESGGGVVQPGRSLRLSCAASGFTFSSYDMHWVRQAPGKGLEWVAVISYDGTNEYYADSVKGRFTISRDTSKNTLYLQMNSLRAEDTAVYYCARERYFDWSFDYWGQGTLVSVSS
VL: EIVLTQSPGTLSLSPGERATLSCRASQSVSNTYLAWYHQRPGQAPRLLIYGASSRATGIPDRFSGSGSGTDFALTISSLEPEDFAVYYCQQYSNSWTFGQGTKVEIKR
notes: huIgG1z / huKLC; Bin 4
B5: hu anti-<huCDH19> 23A10.3 (1-474)(L92Q) VH::huIgG1z + 23A10.3 (1-231)(C42S) VL::huLLC-C2 (Ab ID 14077) (antibody, V domains shown)
VH: B3 VH with S31R, M34I, F50V, D66G, K84N, T91S, I103P, I106T
VL: B3 VL with T32V, C33S, R38K, L44I, T51N, R53W
notes: Engineered variant of 23A10; the entries already carry the changes; Bin 4
B6: anti-CDH19 antibody 4A2 (Ab ID 13592) (antibody, human IgG1, kappa, V domains shown)
VH: QVQLQESGPGLVKPSQTLSLTCTVSGGSISSSGYYWSWIRQHPGKGLEWIGYIYYTGSAYYNPSLKSRVTISVDTSKNQFSLKLSSVTAADTAVYYCARDGSSGWYFQYWGQGTLVTVSS
VL: EIVLTQSPGTLSLSPGERATLSCRASRNISSSYLAWYQQKPGQAPRLLIYGPSSRATGIPDRFSGSGSGTDFTLTISRLEPEDFTVYYCQQYGSSFTFGPGTKVDIKR
notes: Bin 4

Positions count from the first letter of the chain named. In names and notes the source's numbering stands.

One assay has as its target T1, caCDH19(1-43)::FLAG::caCDH19(44-87)::rhCDH19(89-114)::caCDH19(115-770) (construct T, rh EC1b) (rhesus macaque/dog chimera).
T1 construct: leader left out
T1 chain: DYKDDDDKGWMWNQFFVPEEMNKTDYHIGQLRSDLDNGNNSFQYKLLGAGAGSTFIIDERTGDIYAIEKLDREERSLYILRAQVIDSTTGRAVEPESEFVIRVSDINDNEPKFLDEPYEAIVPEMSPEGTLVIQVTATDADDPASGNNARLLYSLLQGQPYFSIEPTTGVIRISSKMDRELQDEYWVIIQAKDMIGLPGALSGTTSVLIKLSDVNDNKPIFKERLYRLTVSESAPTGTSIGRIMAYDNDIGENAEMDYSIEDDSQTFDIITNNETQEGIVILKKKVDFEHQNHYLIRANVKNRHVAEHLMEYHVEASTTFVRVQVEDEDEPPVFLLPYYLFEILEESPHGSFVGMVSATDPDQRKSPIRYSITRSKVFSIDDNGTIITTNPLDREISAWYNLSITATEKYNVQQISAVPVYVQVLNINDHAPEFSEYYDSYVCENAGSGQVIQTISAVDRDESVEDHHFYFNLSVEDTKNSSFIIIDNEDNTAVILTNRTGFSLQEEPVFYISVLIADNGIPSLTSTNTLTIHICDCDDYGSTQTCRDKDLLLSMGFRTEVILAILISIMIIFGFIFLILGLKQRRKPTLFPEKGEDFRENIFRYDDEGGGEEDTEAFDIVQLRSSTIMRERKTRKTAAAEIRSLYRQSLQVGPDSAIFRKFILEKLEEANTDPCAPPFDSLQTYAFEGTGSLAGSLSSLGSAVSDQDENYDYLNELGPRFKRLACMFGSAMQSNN
In words: flow cytometry, transfected 293T cells, 2 mM CaCl2.
Method: (§1) The following binding assay was completed in presence of 2 mM CaCl₂). […] Cells were then washed one time and the amount of cell associated Alexa647-labelled Ab was quantitated by flow cytometry. The experiments included mock transfected controls.
Consider B1, for which the binding result is reported as “no binding (tested: 5 ug/ml)”.
Same read-out and setting: under B2 stands “binds”.

The target in the next assay is T2, rhCDH19(1-43)::FLAG::rhCDH19(44-65)::caCDH19(65-770) (construct S, rh EC1a) (rhesus macaque/dog chimera).
T2 construct: leader (1-43 of the entry) left out
As to the kind of experiment: flow cytometry, transfected 293T cells, 2 mM CaCl2.
Method: as §1
For the molecule B1, the binding result is listed as “no binding (tested: 5 ug/ml)”.
With B2, the binding result was “binds”.

A further assay has as its target T3, rhCDH19(1-43)::FLAG::rhCDH19(44-141)::caCDH19(141-770) (construct R, rh EC1) (rhesus macaque/dog chimera).
T3 construct: leader (1-43 of the entry) left out
In words: flow cytometry, transfected 293T cells, 2 mM CaCl2.
Method: as §1
Consider B1, for which the binding result is recorded as “binds”.
For B2, the binding result is listed as “binds”.

Another assay addresses T4, huCDH19(44-249)::muCDH19(248-770) with Flag tag (construct C, Hu EC1-2) (human/mouse chimera).
T4 construct: leader left out; the entry starts at residue 44; also called C137896
In words: flow cytometry, transfected 293T cells.
From the text: (§2) The experiment included assaying the anti-CDH19 antibodies against mouse Cadherin19 to determine suitability for binning on these human/mouse chimeras.
Consider B1, for which the binding result was “binds”.
Still for that read-out and setting: under B2 stands “binds”; under B3, “binds”.

The target of a further assay is T5, huCDH19(44-141)::muCDH19(140-770) with Flag tag (construct B, Hu EC1) (human/mouse chimera).
T5 construct: leader left out; the entry starts at residue 44; also called C137897
In words: flow cytometry, transfected 293T cells.
From the text: as §2
On to B1, for which the binding result was “binds”.
The same measure, in the same setting: under B2 stands “binds”; under B3, “binds”.

The next assay has as its target T6, muCDH19(44-770) with Flag tag (construct I, Mu EC1-5) (mouse).
T6 construct: leader left out; the entry starts at residue 44; also called Mo EC1-5; mouse Cadherin19
T6 chain: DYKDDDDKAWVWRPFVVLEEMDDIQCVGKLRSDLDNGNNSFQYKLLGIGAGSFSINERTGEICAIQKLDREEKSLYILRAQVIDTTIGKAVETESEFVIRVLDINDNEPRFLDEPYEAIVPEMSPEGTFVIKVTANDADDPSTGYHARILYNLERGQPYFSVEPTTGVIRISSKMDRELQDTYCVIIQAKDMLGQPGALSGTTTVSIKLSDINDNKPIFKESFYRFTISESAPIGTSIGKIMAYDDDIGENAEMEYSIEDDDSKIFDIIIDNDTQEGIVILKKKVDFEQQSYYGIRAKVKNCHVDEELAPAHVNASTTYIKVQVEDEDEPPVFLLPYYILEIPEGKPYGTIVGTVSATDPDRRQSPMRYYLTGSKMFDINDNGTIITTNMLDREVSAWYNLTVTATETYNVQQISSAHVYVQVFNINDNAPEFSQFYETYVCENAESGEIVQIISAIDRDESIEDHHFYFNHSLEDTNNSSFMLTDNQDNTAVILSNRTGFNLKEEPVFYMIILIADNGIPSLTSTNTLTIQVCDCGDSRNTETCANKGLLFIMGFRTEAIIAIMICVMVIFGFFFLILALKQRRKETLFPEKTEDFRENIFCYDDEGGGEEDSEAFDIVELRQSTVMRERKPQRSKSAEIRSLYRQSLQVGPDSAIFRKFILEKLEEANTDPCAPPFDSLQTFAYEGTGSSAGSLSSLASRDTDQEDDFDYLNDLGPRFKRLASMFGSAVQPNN
In words: flow cytometry, transfected 293T cells, 2 mM CaCl2.
Method: as §1
On to B1, for which the binding result is “no binding (tested: 5 ug/ml)”.
Still for that read-out and setting: under B2 stands “no binding (tested: 5 ug/ml)”; under B4, “no binding (tested: 5 ug/ml)”.
The same measure, in the same setting: under B5 stands “binds”.

Another assay addresses T7, Human Cadherin-19 (human, UniProt Q9H159 44-772).
T7 construct: also called CDH19; huCDH19
In words: FACS, endogenous CDH-19 on CHL-1 and Colo699 tumor cells.
Method: FACS binding assays were performed to evaluate the binding of the anti-Cadherin-19 receptor specific antibodies to endogenous Cadherin-19 receptor expressed on the CHL-1 tumor cell lines.
FACs assays were performed by incubating hybridoma supernatants with 10,000 to 25,000 cells in PBS/2% Fetal bovine serum/2 mM Calcium Chloride at 4° C. for one hour followed by two washes with PBS/2% Fetal bovine serum/2 mM Calcium Chloride. Cells were then treated with florochrome-labeled secondary antibodies at 4° C. followed by one wash. The cells were resuspended in 50 μl of PBS/2% FBS and antibody binding was analyzed using a FACSCalibur™ instrument.
Take B1: the binding result is “binds”.
As to B2, the binding result is “binds”.
The same measure, in the same setting: under B4 stands “binds”; under B3, “binds”.

A further assay concerns the target T8, Cyno Cadherin-19 (cynomologous monkey (Macaca …, UniProt Q9H159 44-772 (human entry))).
T8 construct: also called cynomologous monkey CDH-19
T8 chain: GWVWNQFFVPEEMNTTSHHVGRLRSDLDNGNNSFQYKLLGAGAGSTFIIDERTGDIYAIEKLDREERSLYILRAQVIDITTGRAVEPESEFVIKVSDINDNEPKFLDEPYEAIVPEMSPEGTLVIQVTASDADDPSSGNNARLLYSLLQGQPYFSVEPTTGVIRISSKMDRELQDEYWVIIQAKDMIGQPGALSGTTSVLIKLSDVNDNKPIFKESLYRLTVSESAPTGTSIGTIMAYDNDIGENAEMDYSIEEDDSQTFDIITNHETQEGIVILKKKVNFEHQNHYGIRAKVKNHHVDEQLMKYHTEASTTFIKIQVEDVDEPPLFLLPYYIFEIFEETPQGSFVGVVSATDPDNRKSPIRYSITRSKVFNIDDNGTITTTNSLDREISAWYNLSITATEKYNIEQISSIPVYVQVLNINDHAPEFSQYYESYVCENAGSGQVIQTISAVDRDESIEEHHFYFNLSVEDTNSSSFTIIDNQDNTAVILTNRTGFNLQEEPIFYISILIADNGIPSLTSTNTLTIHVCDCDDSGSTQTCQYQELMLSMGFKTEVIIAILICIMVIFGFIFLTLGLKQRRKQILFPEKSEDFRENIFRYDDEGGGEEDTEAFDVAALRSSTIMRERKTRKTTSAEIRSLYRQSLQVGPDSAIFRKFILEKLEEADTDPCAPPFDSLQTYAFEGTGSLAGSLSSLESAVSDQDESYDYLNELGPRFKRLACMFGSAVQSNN
In words: FACS, recombinant cynomologous CDH-19.
For the molecule B6, the binding result is reported as “binds”.
Take B1: the binding result is on record as “binds”.
The same measure, in the same setting: under B2 stands “binds”; under B4, “binds”; under B3, “binds”.
